Measured values published in article PMC11477141, “Chemokine Receptor N-Terminus Charge Dictates Reliance on Post-Translational Modifications for Effective Ligand Capture and Following Boosting by Defense Peptides” (International Journal of Molecular Sciences, 2024).
Values belong to the molecule of their own block, whether it stands above or below them. Where no end group is shown, it is not given here.

Experiments:
[1] = system: naked CCR5 N-terminus; experiment: Fluorescence polarization binding to FAM-labeled CCR5 N-terminal peptide; set-up: species or system human
Method: (§1) Fluorescence polarization (FP) assay: The carboxyfluorescein (FAM)-labeled peptides representing the CCR1 and CCR5 N-termini functioned as the probes for quantifying the interaction between the receptor N-terminus and C21TP^81-111. The probe was diluted in FP buffer (1:3, PBS:MilliQ) and 10 µL was added to a final concentration of 250 nM per well in a black 384-well plate (Corning). The C21TP^81-111 peptide (2 mM) was diluted using a two-fold dilution series; 30 µL of the peptide was added to each well to final concentrations ranging from 12.21 nM to 100 µM. Blanks containing 10 µL probe and 30 µL FP buffer were included. The plate was spun down at 1000 rpm for 1 min and the FP signal was measured on a Flex station using SoftMax Pro software 7.0. Each experiment was conducted in triplicate. The binding curves were generated by plotting the FP signal, expressed as millipolarization units (mP), against C21TP^81-111 concentration. The dissociation constant (Kd) value was calculated using GraphPad Prism 9.
(§2) Probes: • CCR1: (5,6-FAM)-[…], • CCR5: (5,6-FAM)-ADYQVSSPIYDINYYTSEP.

[2] = target: naked CCR1 N-terminus (Homo sapiens, UniProt P32246); experiment: Fluorescence polarization binding to FAM-labeled CCR1 N-terminal peptide; details: FAM-labeled CCR1 N-terminal peptide
Method: as §1, §2

[3] = target: T1, CCR1 (Homo sapiens, UniProt P32246); experiment: BRET CAMYEL cAMP sensor assay of ligand-induced Gαi signaling via CCR1; type: cell-based; details: n = 3; for boosting of CCL5-induced Gαi signaling via CCR1 / boosting of CCL7-induced Gαi signaling via CCR1 / effect on CCL3-induced Gαi signaling via CCR1: CHO-K1 cells, 10 µM peptide, chemokine 0-100 nM; for Gαi signaling via CCR1 in DeltaSia and sC cells: CCL5 oligomerization variants experiment; for Gαi signaling via CCR1 compared to WT CCL5: HEK293 WT cells
T1 construct: expressed in transfected cells; host or cells: CHO-K1, CHO-pgsB618 (GAG-minus), HEK293 WT / DeltaSia / sC
T1 sequence (P32246 1-355): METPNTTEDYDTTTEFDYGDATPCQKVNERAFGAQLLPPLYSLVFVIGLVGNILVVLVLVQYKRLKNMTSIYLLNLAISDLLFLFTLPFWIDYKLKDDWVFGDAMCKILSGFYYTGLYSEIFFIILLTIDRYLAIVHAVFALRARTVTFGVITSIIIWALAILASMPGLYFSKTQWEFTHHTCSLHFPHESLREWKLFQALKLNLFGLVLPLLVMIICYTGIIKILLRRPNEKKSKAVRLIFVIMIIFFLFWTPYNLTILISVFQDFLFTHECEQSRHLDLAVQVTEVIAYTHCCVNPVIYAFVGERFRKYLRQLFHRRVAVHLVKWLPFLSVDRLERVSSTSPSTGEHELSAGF
Method: (§3) For quantification of signaling initiated immediate downstream of receptor activation, we used the cAMP binding CAMYEL sensor to perform bioluminescence resonance energy transfer (BRET)-based assays. Shortly, in this assay increased receptor activation leads to an increase in BRET ratio. For detailed information see the Materials and Methods section.
(§4) In signaling assays testing the boosting ability of basic peptides, transfected cells were aliquoted into 96-well plates in the presence of 10 µM peptide or PBS vehicle. After R-Luc substrate addition, chemokines were added to reach final concentrations ranging from 0–100 nM (0, 0.1, 1, 10, and 100 nM) and forskolin was applied before reading emission at 475 and 525 nm.
(§5) BRET measurements of Gαi signaling and β-arrestin recruitment: Cells were seeded in 6-well plates (500,000 cells/well) and transiently transfected the following day. For BRET measurements of Gαi signaling, cells were transfected with vectors encoding the human chemokine receptors as indicated (160 ng/well) and the CAMYEL sensor (cAMP sensor, YFP-Epac-RLuc) (840 ng/well) using Lipofectamine (6 µL/well). Briefly, DNA was dissolved in 125 µL OPTI-MEM and Lipofectamine was dissolved in 125 µL OPTI-MEM. The DNA and Lipofectamine solutions were combined into a transfection mixture. The transfection mixture was added dropwise to cells incubated in OPTI-MEM (1 mL/well). Transfections were terminated after 5 h by adding 1 mL of fresh culture medium on top of the OPTI-MEM. The following day the cells were loosened from the plates in PBS with 5 mM glucose and subsequently aliquoted in white 96-well iso plates (~25,000 cells/well). When using C21TP variants and defense peptides (hBD2 and histatin), these were added to a final concentration of 10 μM/well, while an equal amount of PBS was added to control cells. The bioluminescence substrate coelenterazine was added to a final conc. of 5 µM. After 10 min, varying ligand concentrations were added. For BRET measurements of Gαi signaling, forskolin was added 5 min after the addition of the ligand, to a final conc. of 5 µM. The plates were kept in the dark at all times. A Perkin Elmer Envision machine was used for measuring the emission signals at 530 and 480 nm. The BRET signal is determined as the ratio eYFP (530 nm)/Rluc (480 nm).
(§6) BRET principle with CAMYEL: For quantification of signaling initiated immediately downstream of receptor activation, we used the cAMP binding CAMYEL sensor to perform bioluminescence resonance energy transfer (BRET) based assays. In this assay we measure changes in intracellular cAMP levels in response to receptor activation. Activation of chemokine receptors lead to a decrease in cAMP through inhibition of adenylate cyclase (AC). In the current setup we initially add forskolin that stimulates AC directly to induce an increase in intracellular cAMP, and we then measure the ability of a ligand (chemokine) to counteract the forskolin-induced increase in cAMP. The cAMP sensor (CAMYEL cAMP sensor, YFP-Epac-RLuc) carries the donor Renilla luciferase (Rluc) and the acceptor YFP. Coelenterazine is a substrate for Rluc that will emit light at around 475 nm upon enzymatic cleavage catalyzed by Rluc. When Rluc and YFP are in close proximity, the energy from the emitted light from coelenterazine can be transferred to YFP, resulting in an excitation of YFP, leading to a BRET signal around 525 nm. EPAC is a cAMP binding protein that changes conformation upon cAMP binding. During low cAMP concentrations, Rluc and YFP are near each other, and a strong BRET signal at 525 nm is obtained. When cAMP levels increase, cAMP will bind to EPAC, creating a conformational change, separating Rluc and YFP, reducing the BRET ratio, and increasing the emission from Rluc at 475 nm. Thus, by measuring the ratio between the cAMP-bound (475 nm) and the cAMP-free (525 nm) state of CAMYEL we obtain a measure of receptor activation. […]

[4] = system: CCR2; details: cited from earlier work
From the text: The reliance on electrostatic interactions between basic amino acids in the chemokine and acidic regions in the receptor N-terminus for chemokine receptor binding is illustrated by a study carried out by Hemmerich et al.. To investigate the influence of charge, hydrophobicity, and aromaticity on binding of CCL2 to its cognate receptor CCR2, this group substituted all surface-exposed residues on CCL2 by alanine. […] In contr ...

[5] = target: T2, CCR5 (Homo sapiens, UniProt P51681); experiment: BRET CAMYEL cAMP sensor assay of ligand-induced Gαi signaling via CCR5; type: cell-based; details: n = 3; for Gαi signaling via CCR5 in DeltaSia cells compared to WT cells: HEK293 DeltaSia (ST3GAL1/2 KO); for Gαi signaling via CCR5 in sC cells compared to WT cells: HEK293 sC (C1GALT1 KO); for Gαi signaling via M1-CCR5 in DeltaSia and sC cells compared to WT cells: M1-tagged CCR5, HEK293 DeltaSia and sC; for Gαi signaling via CCR5 in DeltaSia and sC cells: HEK293 DeltaSia and sC, CCL5 oligomerization variants experiment; for Gαi signaling via CCR5 compared to WT CCL5: HEK293 WT cells
T2 construct: expressed in transfected cells; host or cells: CHO-K1, CHO-pgsB618 (GAG-minus), HEK293 WT / DeltaSia / sC
Method: as §3, §4, §5, §6

[6] = system: CCR5-1like; experiment: BRET CAMYEL Gαi signaling via chimeric receptor M1-CCR5-1like; type: cell-based, human; details: HEK293 DeltaSia and sC, n = 3
From the text: To finally determine if the lack of acidic amino acids in the CCR5 N-terminus can explain the dependency of this receptor on O-glycosylation for effective ligand interaction, we constructed a CCR5 receptor chimera, where the most acidic N-terminal region of CCR1 was inserted into the CCR5 N-terminus, creating the chimeric receptor CCR5-1like (Figure 7).
Figure 7 Receptor N-termini representing CCR1, CCR5, and the chimeric CCR5-1like. The CCR1 N-terminus contains a lot of acidic amino acids (outlined in red) in the form of aspartic acid (D) and glutamic acid (E), whereas CCR5 only contains a few. The chimeric receptor CCR5-1like that contains part of the CCR1 receptor N-terminus (ETTTDYDE) resembles CCR1 with regard to acidic amino acid content and spacing, but they are not the same.
as §5
as §6, with “nm.” for “nm. EPAC is a cAMP binding protein that changes conformation upon cAMP binding. During low cAMP concentrations, Rluc and YFP are near each other, and a strong BRET signal at 525 nm is obtained. When cAMP levels increase, cAMP will bind to EPAC, creating a conformational change, separating Rluc and YFP, reducing the BRET ratio, and increasing the emission from Rluc at 475 nm. Thus, by measuring the ratio between the cAMP-bound (475 nm) and the cAMP-free (525 nm) state of CAMYEL we obtain a measure of receptor activation.”

T2 sequence (P51681 whole entry): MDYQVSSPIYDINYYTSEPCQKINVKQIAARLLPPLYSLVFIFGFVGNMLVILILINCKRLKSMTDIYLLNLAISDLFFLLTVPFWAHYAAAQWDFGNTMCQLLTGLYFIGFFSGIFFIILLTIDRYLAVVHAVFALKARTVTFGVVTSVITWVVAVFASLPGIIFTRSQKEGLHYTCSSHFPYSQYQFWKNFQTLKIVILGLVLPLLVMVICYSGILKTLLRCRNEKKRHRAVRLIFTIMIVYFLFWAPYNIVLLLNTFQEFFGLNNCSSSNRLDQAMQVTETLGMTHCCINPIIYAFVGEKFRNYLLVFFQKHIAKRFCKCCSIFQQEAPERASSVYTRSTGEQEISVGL
naked CCR1 N-terminus, sequence (P32246 with tags, fused parts or gaps limits assumed): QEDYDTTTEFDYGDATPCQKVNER

Molecule: histatin1: human host defense peptide, less basic than hBD2, from Caslo (DSHEKRHHGYRRKFHEKHHSHREFPFYGDYGSNYLYDN) [reference compound]
binding to the naked CCR5 N-terminus [1]: neither of the HDPs bound | binding to the naked CCR1 N-terminus [2]: bind in a dose-dependent manner | boosting of CCL5-induced Gαi signaling via CCR1 [3]: also boosted the potency of both these chemokines, although to a lesser extent | boosting of CCL7-induced Gαi signaling via CCR1 [3]: also boosted the potency of both these chemokines, although to a lesser extent | effect on CCL3-induced Gαi signaling via CCR1 [3]: not affected

Molecule: R24A: CCL2 with R24A substitution (literature)
reduction of CCL2 binding to CCR2 by substitution in CCL2 [4]: ~ 30 fold

Molecule: R24E: CCL2 with R24 substituted by glutamic acid (literature)
reduction of CCL2 binding to CCR2 by substitution in CCL2 [4]: ≥ 1600 fold

Molecule: K35E: CCL2 with K35 substituted by glutamic acid (literature)
reduction of CCL2 binding to CCR2 by substitution in CCL2 [4]: ≥ 1600 fold

Continued, in another order:

binding to the naked CCR5 N-terminus [1]: neither of the HDPs bound | binding to the naked CCR1 N-terminus [2]: bind in a dose-dependent manner | effect on CCL3-induced Gαi signaling via CCR1 [3]: not affected
Molecule: human beta defensin 2 (GIGDPVTCLKSGAICHPVFCPRRYKQIGTCGLPGTKCCKKP; ends and bridges not checked; cysteine pairing not given here) [hBD2, human anti-microbial / host defense peptide, from Caslo, reference compound]
boosting of CCL5-induced Gαi signaling via CCR1 [3]: as efficient in boosting signaling via CCR1 by CCL5 and CCL7 as C21TP^81-111 | boosting of CCL7-induced Gαi signaling via CCR1 [3]: as efficient in boosting signaling via CCR1 by CCL5 and CCL7 as C21TP^81-111

Gαi signaling via CCR5 in DeltaSia cells compared to WT cells [5]: drastically reduced | Gαi signaling via CCR5 in sC cells compared to WT cells [5]: drastically reduced | Gαi signaling via M1-CCR5 in DeltaSia and sC cells compared to WT cells [5]: drastically reduced
Molecule: CCL3: human chemokine from Peprotech, overall acidic
Gαi signaling via M1-CCR5-1like in DeltaSia and sC cells compared to WT cells [6]: persists in DeltaSia and sC to almost the same high level as observed in WT cells | Gαi signaling via CCR1 in DeltaSia and sC cells compared to WT cells ([3]; HEK293 DeltaSia and sC): persists in DeltaSia and sC to almost the same high level as observed in WT cells

Gαi signaling via CCR5 in DeltaSia and sC cells [5]: very low | Gαi signaling via CCR5 compared to WT CCL5 [5]: WT-like signaling | Gαi signaling via CCR1 in DeltaSia and sC cells ([3]; HEK293 DeltaSia and sC): remains high | Gαi signaling via CCR1 compared to WT CCL5 [3]: WT-like signaling
B1: E26A: mutant version of CCL5, obligate tetramer, expressed in E. coli (protein, UniProt P13501 24-91, looked up, variant E26A)
C-C motif chemokine 5: SPYSSDTTPCCFAYIARPLPRAHIKAYFYTSGKCSNPAVVFVTRKNRQVCANPEKKWVREYINSLEMS

Gαi signaling via CCR5 in DeltaSia and sC cells [5]: very low | Gαi signaling via CCR5 compared to WT CCL5 [5]: WT-like signaling | Gαi signaling via CCR1 in DeltaSia and sC cells ([3]; HEK293 DeltaSia and sC): remains high | Gαi signaling via CCR1 compared to WT CCL5 [3]: WT-like signaling
B2: E66A: mutant version of CCL5, obligate dimer, expressed in E. coli (protein, UniProt P13501 24-91, looked up, variant E66A)
C-C motif chemokine 5: SPYSSDTTPCCFAYIARPLPRAHIKEYFYTSGKCSNPAVVFVTRKNRQVCANPEKKWVREYINSLAMS
modifications: also: obligate dimer
notes: mutant version of CCL5, obligate dimer, expressed in E. coli

Gαi signaling via CCR5 in DeltaSia cells compared to WT cells [5]: drastically reduced | Gαi signaling via CCR5 in sC cells compared to WT cells [5]: drastically reduced | Gαi signaling via M1-CCR5 in DeltaSia and sC cells compared to WT cells [5]: drastically reduced
B3: CCL8: human chemokine from Peprotech (protein, UniProt P80075 24-99, looked up)
C-C motif chemokine 8: QPDSVSIPITCCFNVINRKIPIQRLESYTRITNIQCPKEAVIFKTKRGKEVCADPKERWVRDSMKHLDQIFQNLKP
Gαi signaling via M1-CCR5-1like in DeltaSia and sC cells compared to WT cells [6]: persists in DeltaSia and sC to almost the same high level as observed in WT cells
